Source: patent US20200385685A1, “ROBUST DIFFERENTIATION OF HUMAN PLURIPOTENT STEM CELLS INTO ENDOTHELIAL CELLS USING TRANSCRIPTION FACTOR ETV2” (Children`s Medical Center Corporation, priority 2019, published 2020)
Read-outs that look alike come from different tables or passages of the source.

What was measured:
h-MPCs [1] = assay: Conversion of h-MPCs into h-iECs after transfection with modRNA(ETV2), flow cytometry; assay type: cell-based, human; conditions: for percentage of h-iECs at 96 h: above 0.5 μg of modRNA(ETV2) per 10^6 h-iPSCs
Source text: Antibody information is detailed in Table 8.

h-MPCs [2] = assay: Immunofluorescence staining for ETV2 after transfection with modRNA; assay type: cell-based, human; conditions: 6 h after transfection of h-MPCs
Description: Cells were seeded in 8-well LAB-TEK chamber slides at a density of 60,000 cell s/cm^2. After confluency, cells were fixed in 4% paraformaldehyde (PFA), permeabilized with 0.1% Triton X-100 in PBS, and then blocked for 30 min in 5% horse serum (Vector, Cat No. 5-2000). Subsequently, cells were incubated with primary antibodies for 30 min at room temperature (RT). Cells were washed 3 times with PBS and then incubated with secondary antibodies for 30 min at RT. Cells were washed 3 times with PBS and stained with 0.5 μg/mL DAPI for 5 min. Slides were mounted with DAKO fluorescence mounting medium (Agilent, Cat No. 5302380-2). Antibody information is detailed in Table 8, above.

Description for h-iPSCs: S1-modETV2 protocol (4 days)—h-iPSCs were dissociated into single cells with TrypLE select and plated on Matrigel at a density of 60,000 cells/cm^2 in mTeSR1 medium with 10 μM Y27632. After 24 h, the medium was changed to S1 medium consisting of basal medium supplemented with 6 μM CHIR99021. Basal medium was prepared by adding 1× GlutaMax supplement and 60 μg/mL L-Ascorbic acid into Advanced DMEM/F12. After 48 h, h-MPCs were dissociated into single cells and then transfected with modRNA(ETV2) by either electroporation or lipofection. For electroporation, 2 million h-MPCs were resuspended in 100 μL buffer mixed with 1 μg modETV2. Electroporated cells were then seeded on a 60-mm Matrigel-coated dish in modETV2 medium consisting of basal medium supplemented with 50 ng/mL VEGF-A, 50 ng/mL FGF-2, 10 ng/mL EGF and 10 μM SB431542. For lipofection, 3 μL lipofectamine RNAiMax (ThermoFisher, Cat No. 13778030) were diluted in 50 μL Opti-MEM (ThermoFisher, Cat No. 31985062) and 0.6 μg modRNA(ETV2) diluted in another 50 μL Opti-MEM. Lipofectamine and modRNA(ETV2) were then mixed and incubated for 15 min at room temperature. The lipid/RNA complex was added to 0.5 million h-MPCs in modETV2 medium and transfected cells were then seeded on a 35-mm Matrigel-coated dish. Upon transfection (electroporation or lipofection), cells were cultured for another 48 h before purification. Medium was changed every day throughout this protocol (Table 2). modRNA encoding GFP (TriLink, Cat No. L-7601) at a concentration of 0.2 μg per million h-MPCs served as negative control.
S1-S2, method #1 (4 days)—h-iPSCs were dissociated into single cells with TrypLE select and plated on Matrigel at a density of 60,000 cells/cm^2 in mTeSR1 medium with 10 μM Y27632. […]
Cells were dissociated into single-cell suspensions using TrypLE and washed with PBS supplemented with 100BSA and 0.2 mM EDTA. In indicated experiments, cells were stained with flow cytometry antibodies and analyzed using a Guava easyCyte 6HT/2L flow cytometer (Millipore Corporation, Billerica, Mass.) and FlowJo software (Tree Star Inc., Ashland, Oreg.). […]

Cc1cc(C)c(/C=C2\C(=O)Nc3ccccc32)[nH]1 [SU5416]
h-iECs at 96 h (h-iPSCs; S1-S2 protocol): < 2%
h-iECs at 96 h (h-iPSCs; S1-modETV2 protocol): 94%

VEGF
proportion of ETV2+ cells and subsequent conversion to CD31+ h-iECs (h-iPSCs; S1-S2 protocol, beyond 50 ng/mL): failed to further increase

B1: modRNA(ETV2): Chemically modified mRNA encoding ETV2, transcript variant 1 (NM_014209.3), SEQ ID NO: 1, generated by TriLink BioTechnologies (nucleic acid, listed as Homo sapiens)
chain: ATGGACCTGTGGAACTGGGATGAGGCATCCCCACAGGAAGTGCCTCCAGGGAACAAGCTGGCAGGGCTTGAAGGAGCCAAATTAGGCTTCTGTTTCCCTGATCTGGCACTCCAAGGGGACACGCCGACAGCGACAGCAGAGACATGCTGGAAAGGTACAAGCTCATCCCTGGCAAGCTTCCCACAGCTGGACTGGGGCTCCGCGTTACTGCACCCAGAAGTTCCATGGGGGGCGGAGCCCGACTCTCAGGCTCTTCCGTGGTCCGGGGACTGGACAGACATGGCGTGCACAGCCTGGGACTCTTGGAGCGGCGCCTCGCAGACCCTGGGCCCCGCCCCTCTCGGCCCGGGCCCCATCCCCGCCGCCGGCTCCGAAGGCGCCGCGGGCCAGAACTGCGTCCCCGTGGCGGGAGAGGCCACCTCGTGGTCGCGCGCCCAGGCCGCCGGGAGCAACACCAGCTGGGACTGTTCTGTGGGGCCCGACGGCGATACCTACTGGGGCAGTGGCCTGGGCGGGGAGCCGCGCACGGACTGTACCATTTCGTGGGGCGGGCCCGCGGGCCCGGACTGTACCACCTCCTGGAACCCGGGGCTGCATGCGGGTGGCACCACCTCTTTGAAGCGGTACCAGAGCTCAGCTCTCACCGTTTGCTCCGAACCGAGCCCGCAGTCGGACCGTGCCAGTTTGGCTCGATGCCCCAAAACTAACCACCGAGGTCCCATTCAGCTGTGGCAGTTCCTCCTGGAGCTGCTCCACGACGGGGCGCGTAGCAGCTGCATCCGTTGGACTGGCAACAGCCGCGAGTTCCAGCTGTGCGACCCCAAAGAGGTGGCTCGGCTGTGGGGCGAGCGCAAGAGAAAGCCGGGCATGAATTACGAGAAGCTGAGCCGGGGCCTTCGCTACTACTATCGCCGCGACATCGTGCGCAAGAGCGGGGGGCGAAAGTACACGTACCGCTTCGGGGGCCGCGTGCCCAGCCTAGCCTATCCGGACTGTGCGGGAGGCGGACGGGGAGCAGAGACACAATAA
modifications: chemically modified nucleosides
cells that were endothelial (VE-Cadherin+/CD31+ cells) (h-MPCs [1]; 48 h after transfection of h-MPCs): 95%
percentage of h-iECs at 96 h (h-MPCs [1]; electroporation): 95%
percentage of h-iECs at 96 h (h-MPCs [1]; lipofection): 75%
cells expressing ETV2 (h-MPCs [2]): > 85%
